The text below walks through data of patent US20260216365A1, “ANTIBODY-DRUG CONJUGATES AGAINST THE RECEPTOR TYROSINE KINASE EPHA5” (Rutgers, The State University of New Jersey, priority 2021, published 2026).

Substitutions are numbered along the chain they refer to. Several values for one entry are separate records, joined by “and”; a condition that tells them apart may be missing. Identical values can stand only once.

Data set [1] addresses T1, recombinant human EphA5 (rhEphA5) antigen (Homo sapiens, UniProt P54756).
T1 construct: purchased R and D systems 3036-A5
In words: Biacore multi-cycle kinetic analysis of purified antibodies, 1:1 model. The class given is binding. To be noted: for binding to EphA5 relative to the chimeric antibody (VH0/VK0): purified antibodies, multi-cycle kinetics. The method, then: In order to assess the binding of the six lead humanized variants to rhEphA5 antigen, multi-cycle kinetic analysis (FIG. 68) was performed on purified material. Kinetic experiments were performed at 25° C. on a Biacore T200 running Biacore T200 Control software V2.0.1 and Evaluation software V3.0 (GE Healthcare, Uppsala, Sweden).
HBS-P+ (GE Healthcare, Uppsala, Sweden), supplemented with 1% BSA w/v (Sigma, Dorset, UK) was used as running buffer as well as for ligand and analyte dilutions. Purified lead antibodies were diluted to 0.5 μg/mL in running buffer and at the start of each cycle, loaded onto Fc2, Fc3 and Fc4 of an anti-human IgG CM5 sensor chip (GE Healthcare, Little Chalfont, UK). Antibodies were captured at a flow rate of 10 μl/min to give an immobilization level (RL) of ~50 RU. The surface was then allowed to stabilize.
Multi-cycle kinetic data was obtained using recombinant EphA5 as the analytes injected at a flow rate of 30 μl/min to minimize any potential mass transfer effects. A five point, three-fold dilution range from 1.11 nM to 270 nM of EphA5 was prepared in running buffer. For each concentration, the association phases were monitored for 210 seconds and the dissociation phase was measured for 900 seconds. Regeneration of the sensor chip surface was conducted between cycles using two injections of 3 M MgCl2. Multiple repeats of a blank and of EphA5 were programmed into the kinetic run in order to check the stability of both the surface and analyte over the kinetic cycles.
The signal from the reference channel Fc1 (no IgG captured) was subtracted from that of Fc2, Fc3 and Fc4 to correct for bulk effect and differences in non-specific binding to a reference surface. The signal from each IgG blank run (IgG captured but no antigen) was subtracted to correct for differences in surface stability. The double referenced sensorgrams were fitted with the Langmuir (1:1) binding model where the closeness of fit of the data to the model is evaluated using the Chi square value which describes the deviation between the experimental and fitted (observed and expected) curves. The fitting algorithm seeks to minimize the Chi square value.
A summary of the kinetic constants determined from the 1:1 model fitted curves is shown in FIG. 19 with fitted curves shown in FIG. 20.

Data set [2] can be described thus: Thermal ramp stability (UNcle, Sypro Orange fluorescence and static light scattering). The class given is physicochemical. The text has this:
Thermal ramp stability experiments (Tm and Tagg) are well established methods for ranking proteins and formulations for stability. A protein's denaturation profile provides information about its thermal stability and represents a structural ‘fingerprint’ for assessing structural and formulation buffer modifications. A widely used measure of the thermal structural stability of a protein is the temperature at which it unfolds from the native state to a denatured state. For many proteins, this unfolding process occurs over a narrow temperature range and the mid-point of this transition is termed ‘melting temperature’ or ‘Tm’. To determine the melting temperature of a protein, UNcle measures the fluorescence of Sypro Orange (which binds to exposed hydrophobic regions of proteins) as the protein undergoes conformational changes.
Samples for each variant were formulated in PBS and Sypro Orange at a final concentration of 1 mg/mL. 9 μL of each sample mixture was loaded in duplicate into UNi microcuvettes. Samples were subjected to a thermal ramp from 25-95° C., with a ramp rate of 0.3° C./minute and excitation at 473 nm. Full emission spectra were collected from 250-720 nm, and the area under the curve between 510-680 nm was used to calculate the inflection points of the transition curves (Tonset and Tm). Monitoring of static light scattering (SLS) at 473 nm allowed the detection of protein aggregation, and Tagg (onset of aggregation) was calculated from the resulting SLS profiles. Thermal stability values determined lie in a broad range from 57.9 to 69.6° C. (Tm1), 55.1 to 65.2° C. (Tonset) and 65.6 to 70.2° C. (Tagg) with the humanized leads generally showing improved profiles when compared to the chimeric antibody. […] All humanized antibodies appear to have a higher Tm1, Tonset and Tagg compared to the chimeric antibody.

Data set [3] deals with T2, H460 cell line stably expressing EphA5 (Homo sapiens, UniProt P54756).
T2 construct: A H460 cell line stably expressing EphA5 (provided by Rutgers) was used; endogenous in cells; host or cells: H460 human lung carcinoma cells (provided by Rutgers)
T2 sequence (P54756 25-1037): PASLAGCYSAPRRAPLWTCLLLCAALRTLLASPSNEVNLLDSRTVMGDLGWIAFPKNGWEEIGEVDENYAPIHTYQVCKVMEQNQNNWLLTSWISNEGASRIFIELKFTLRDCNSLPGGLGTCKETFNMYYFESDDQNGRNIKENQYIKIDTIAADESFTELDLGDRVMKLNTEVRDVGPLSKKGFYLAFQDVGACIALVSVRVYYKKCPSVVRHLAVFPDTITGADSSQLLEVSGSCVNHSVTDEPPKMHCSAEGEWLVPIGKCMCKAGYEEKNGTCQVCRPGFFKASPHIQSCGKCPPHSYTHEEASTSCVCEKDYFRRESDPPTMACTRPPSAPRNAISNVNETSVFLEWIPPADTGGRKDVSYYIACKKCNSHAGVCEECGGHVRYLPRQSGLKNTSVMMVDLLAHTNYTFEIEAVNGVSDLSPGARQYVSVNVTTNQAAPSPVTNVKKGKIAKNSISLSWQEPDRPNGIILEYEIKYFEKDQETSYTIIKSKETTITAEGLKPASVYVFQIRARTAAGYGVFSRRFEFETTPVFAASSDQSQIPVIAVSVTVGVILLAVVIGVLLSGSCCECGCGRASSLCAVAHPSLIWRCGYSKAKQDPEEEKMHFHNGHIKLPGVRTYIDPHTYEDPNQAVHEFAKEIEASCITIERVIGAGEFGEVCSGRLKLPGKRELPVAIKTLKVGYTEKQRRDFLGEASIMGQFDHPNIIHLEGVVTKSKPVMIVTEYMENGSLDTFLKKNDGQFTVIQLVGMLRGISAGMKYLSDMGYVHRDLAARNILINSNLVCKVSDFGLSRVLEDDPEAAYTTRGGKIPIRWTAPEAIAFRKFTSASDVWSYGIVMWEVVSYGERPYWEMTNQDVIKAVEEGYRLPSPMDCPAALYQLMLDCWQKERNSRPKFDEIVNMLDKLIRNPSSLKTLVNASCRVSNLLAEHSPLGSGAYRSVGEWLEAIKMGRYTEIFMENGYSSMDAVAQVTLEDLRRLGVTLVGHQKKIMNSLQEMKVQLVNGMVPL
The data set can be described thus: Flow cytometry analysis of cell binding, EphA5-positive cells. To be noted: starting 10 μg/ml, four-fold serial dilution, 4° C. 30 minutes. The method, then: (§1) A H460 cell line stably expressing EphA5 (provided by Rutgers) was used, alongside H226 cells as a negative control, to test for antibody binding in a flow cytometry assay. The cell lines were first assessed for target expression using 10 μg/ml of the murine 11C12 provided by Rutgers) and MolgG1 non-binging control (Biolegend, California, US). Goat anti-mouse Alexa Fluor 647 (Thermo Fisher, Loughborough, UK) was used for antibody detection.
(§2) For cell binding assays, both cell lines were resuspended in FACS buffer (PBS+1% BSA+0.1% sodium azide) and seeded in 96 well U bottom plates at 1×105 (100 μl) cells per well. The chimeric and six purified humanized variants were tested in the assay alongside the 11C12 murine positive control, MolgG1 and HulgG1 non-binding controls. Samples were prepared at a starting concentration of 10 μg/ml in FACS buffer and underwent a four-fold seven point serial dilution for testing with H460 cells and a three-fold three point serial dilution for the H226 cells. […] Median fluorescence intensity (MFI) was measured using an Attune NxT Flow Cytometer (Thermo Fisher, Loughborough, UK) and 10,000 gated events were acquired per sample. For data analysis, live cell populations were gated based on the forward and side scatter dot plot allowing the Alexa Fluor 647 MFI values to be measured in the RL1 channel.
In general terms: Flow cytometry measures light scatter and fluorescence of single cells or particles in a stream.

The next data set concerns H226 cells (EphA5−). The data set can be described thus: Flow cytometry analysis of cell binding, EphA5-negative control cells. Also on record: species or system human. To be noted: starting 10 μg/ml, three-fold serial dilution. The method, then:
as §1, §2

T1 sequence (P54756 25-573 limits assumed): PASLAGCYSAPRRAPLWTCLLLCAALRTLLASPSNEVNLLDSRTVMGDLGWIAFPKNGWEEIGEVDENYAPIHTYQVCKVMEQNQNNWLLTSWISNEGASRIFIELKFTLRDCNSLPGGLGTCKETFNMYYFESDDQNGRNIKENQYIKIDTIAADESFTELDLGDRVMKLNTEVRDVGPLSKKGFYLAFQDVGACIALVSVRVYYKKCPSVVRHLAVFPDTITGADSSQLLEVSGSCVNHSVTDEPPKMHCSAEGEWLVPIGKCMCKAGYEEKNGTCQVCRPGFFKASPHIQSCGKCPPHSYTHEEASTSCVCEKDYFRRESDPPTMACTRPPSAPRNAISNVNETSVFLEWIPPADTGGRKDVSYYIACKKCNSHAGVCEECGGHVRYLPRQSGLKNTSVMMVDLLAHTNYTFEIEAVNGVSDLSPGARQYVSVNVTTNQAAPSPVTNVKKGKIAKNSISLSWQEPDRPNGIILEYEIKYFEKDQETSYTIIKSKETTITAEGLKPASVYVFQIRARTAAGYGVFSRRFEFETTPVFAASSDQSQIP

B1: VH0/VK0: chimeric anti-EphA5 antibody, murine 11C12 variable regions (VH SEQ ID NO:1, VL SEQ ID NO:8), human IgG1/kappa constant regions (antibody, V domains shown)
VH: EVTLKESGGGLVQPGGSRKLSCAASGFTFSTFGIHWVRQAPEKGLEWVAYISGASTTIYYADTVKGRFTISRDNPKNTLFLQMTSLRSEDTAMYYCARYGTSFPYGLDYWGQGTSVTVSS
VL: DIVMTQSPGSLAVSLGQRATISCKASQSVDYDGDSYMNWYQQKPGQPPKLLIYGASNLESGIPARFSGSGSGTDFTLNIHPVEEEDAASYYCQQSNEDPFTFGSGTKLEIK
modifications: human IgG1/kappa constant regions without entry
Take B1: in data set [1] (Biacore T200, 25° C., IgG captured on anti-human IgG chip), the “kd” value amounted to 0.0015 s⁻¹. In addition, the RMAX in data set [1] (fitted 1:1 model) came to 47.8. Besides, in data set [2] (average of duplicates), the “Average Tm2 (° C.)” value is 65.83 °C and the “Average Tonset (° C.)” value came out at 55.1 °C. Further, in data set [2] (average of duplicates, 1 mg/mL in PBS), the “Average Tm1 (° C.)” value was found to be 57.9 °C. The “Average Tagg 473 (° C.)” value in data set [2] (average of duplicates, SLS at 473 nm) is 65.6 °C. Besides, the “Tonset (° C.)” value in data set [2] (single replicate) was 54.92 °C and 55.23 °C. Further, the “Tm2 (° C.)” value in data set [2] (single replicate, 1 mg/mL in PBS) was found to be 65.83 °C. In addition, the “Tm1 (° C.)” value in data set [2] (single replicate, 1 mg/mL in PBS, ramp 25-95° C.) is 57.83 °C and 57.87 °C. Moreover, in data set [2] (single replicate, SLS at 473 nm), the “Tagg 473 (° C.)” value was 65.72 °C and 65.60 °C. Besides, the “number of thermal transitions detected” value in data set [2] (thermal ramp 25-95° C.) is reported as “two transitions”.

B2: 11C12: anti-human EphA5 monoclonal murine antibody, parental antibody and positive control (antibody, V domains shown)
VH: B1 VH
VL: B1 VL
Turning to B2, in data set [3], the “binding to H460 (EphA5+) cells, MFI dose response” value is on record as “bound to the positive cell line in a concentration dependent manner”. For the same molecule, the “binding to H226 (EphA5−) cells” value with H226 cells (EphA5−) is reported as “no binding”.

B3: VH4/VK4: humanized anti-EphA5 IgG1/kappa antibody; VH SEQ ID NO:5, VL SEQ ID NO:12 (antibody, V domains shown)
VH: B1 VH with T3Q, K5V, R18L, E42G, P75S, F80Y, T84N, S88A, M93V, S115L
VL: DIVMTQSPDSLAVSLGERATINCKSSQSVDYDGDSYMNWYQQKPGKAPKLLIYGASNLESGIPDRFSGSGSGTDFTLTISRLEPEDAASYYCQQSNEDPFTFGQGTKLEIK
In the case of B3, the “binding to EphA5 relative to the chimeric antibody (VH0/VK0)” value in data set [1] is given as “within two-fold of the chimeric antibody”.

B4: VH3/VK4: humanized anti-EphA5 IgG1/kappa antibody; VH SEQ ID NO:4, VL SEQ ID NO:12 (antibody, V domains shown)
VH: B1 VH with T3Q, K5V, R18L, E42G, P75S, F80Y, T84N, S115L
VL: B3 VL
For B4, the “binding to EphA5 relative to the chimeric antibody (VH0/VK0)” value in data set [1] is given as “within two-fold of the chimeric antibody”.

B5: VH5/VK4: humanized anti-EphA5 IgG1/kappa antibody; VH SEQ ID NO:6, VL SEQ ID NO:12 (antibody, V domains shown)
VH: EVQLVESGGGLVQPGGSLKLSCAASGFTFSTFGIHWVRQAPGKGLEWVAYISGASTTIYYADSVKGRFTISRDNSKNTLYLQMNSLRAEDTAVYYCARYGTSFPYGLDYWGQGTLVTVSS
VL: B3 VL
For B5, the “binding to EphA5 relative to the chimeric antibody (VH0/VK0)” value in data set [1] is on record as “within two-fold of the chimeric antibody”. Also, the “ranking by Tagg (SLS profiles)” value in data set [2] (among the chimeric and six lead humanized variants) was “highest Tagg values”.

B6: VH5/VK2: humanized anti-EphA5 IgG1/kappa antibody; VH SEQ ID NO:6, VL SEQ ID NO:10 (antibody, V domains shown)
VH: B5 VH
VL: B3 VL with S25A
Turning to B6, the “binding to EphA5 relative to the chimeric antibody (VH0/VK0)” value in data set [1] was “within two-fold of the chimeric antibody”.
